This passage reports response results from publication PMC8367383, “A CTP-dependent gating mechanism enables ParB spreading on DNA” (eLife, 2021).

Sequences and labels used below:
B1: C. crescentus ParB on a cysteine-less ParB background [C. crescentus] / itself (parent)
chain: MESVVVGEPGMSEGRRGLGRGLSALLGEVDAAPACAPGEQLGGSREAPIEILQRNPDQPRRTFREEDLEDLSNSIREKGVLQPILVRPSPDTAGEYQIVAGERRWRAAQRAGLKTVPIMVRELDDLAVLEIGIIENVQRADLNVLEEALSYKVLMEKFERTQENIAQTIGKSRSHVANTMRLLALPDEVQSYLVSGELTAGHARAIAAAADPVALAKQIIEGGLSVRETEALARKAPNLSAGKSKGGRPPRVKDTDTQALESDLSSVLGLDVSIDHRGSTGTLTITYATLEQLDDLSNRLTRGI

Variants of B1 are the subject of the assay. The assay is described as follows: BMOE crosslinking assay. The following applies: with itself, 8 µM ParB variant, 0.5 µM 22 bp parS DNA, 5 min preincubation, read off a plot.
The mark [1] stands for this setting: 1 µM CTP point (lowest), parent: 33.
Where [2] appears, read: 1000 µM CTP point (highest), parent: 80.

chain 1 R103A: the response under setting [1] amounted to 30% and the response under setting [2] stood at 34%.
As for chain 1 R60A, the response by setting is: under setting [1], 32%; under setting [2], 49%.
Taken in the same sequence, the figures for chain 1 R139A were 28% and 36%.
For the variant chain 1 Q82A, the response by setting is: under setting [1], 31%; under setting [2], 76%.
chain 1 S74A: the response runs as follows: under setting [1], 28%; under setting [2], 39%.
Taken in the same sequence, the figures for chain 1 R104A were 24% and 23%.
